The assay has as its target SMU.440, hypothetical protein from Streptococcus mutans (Streptococcus mutans). In words: SEC; gel filtration on HiLoad Superdex 75, 20 mM Tris-HCl pH 7.5, 150 mM NaCl.

A word on the stoichiometry N: it is a count of units in the complex or per binding partner. In turn, “SMU.440, hypothetical protein from Streptococcus mutans (natural protein)” returned a stoichiometry N of 2.

(Values after paper PMC2749211.)
